Test results reported in PMC4868535, “A G-protein activation cascade from Arl13B to Arl3 and implications for ciliary targeting of lipidated proteins” (eLife, 2015).
Where a chain is given by its changes, count along the chain named. Names and notes keep the numbering of the source.

How the values were obtained:
CrArl13B 18-278 = target: T1, CrArl13B 18-278 (Chlamydomonas reinhardtii, UniProt A8INQ0); experiment: nucleotide loading (HPLC) and GEF activity of the loaded protein; type: binding; settings: 5 mM MgCl2, pH 7.5, 20°C
T1 construct: gene ARL13; residues 18-278 (G-domain plus C-terminal helix), expressed in E. coli as GST fusion
T1 sequence (A8INQ0 18-278): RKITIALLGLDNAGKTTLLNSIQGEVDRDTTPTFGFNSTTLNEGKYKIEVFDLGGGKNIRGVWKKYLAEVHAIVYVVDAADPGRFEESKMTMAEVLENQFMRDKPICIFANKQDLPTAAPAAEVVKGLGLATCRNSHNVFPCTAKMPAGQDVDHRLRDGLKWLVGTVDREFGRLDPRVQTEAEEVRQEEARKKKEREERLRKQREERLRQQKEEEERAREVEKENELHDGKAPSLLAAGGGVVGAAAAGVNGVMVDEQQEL

[1] = target: T2, CrArl13B-CrArl3 complex (CrArl3 nucleotide site) (Chlamydomonas reinhardtii, UniProt A8ISN6); experiment: X-ray crystal structure […] Å; type: binding; settings: Mg2+; nucleotide site of CrArl3; post-nucleotide-exchange state
T2 construct: gene ARL3; crystal complex, one in asymmetric unit; last 58 residues of CrArl13B not visible; from E. coli; with ADP-ribosylation factor-like protein 13B
T2 sequence (A8ISN6 2-177 limits assumed): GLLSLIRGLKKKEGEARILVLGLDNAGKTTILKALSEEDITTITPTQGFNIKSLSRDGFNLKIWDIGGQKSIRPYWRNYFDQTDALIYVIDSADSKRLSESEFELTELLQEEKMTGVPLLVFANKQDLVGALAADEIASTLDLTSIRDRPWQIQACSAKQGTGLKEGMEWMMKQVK
T2 sequence (A8INQ0 18-278 partner): T1 sequence (A8INQ0 18-278)

[2] = target: T3, CrArl13B-CrArl3 complex (CrArl13B nucleotide site) (Chlamydomonas reinhardtii, UniProt A8INQ0); experiment: X-ray crystal structure […] Å; type: binding; settings: Mg2+; nucleotide site of CrArl13B
T3 construct: gene ARL13; crystal complex, one in asymmetric unit; last 58 residues of CrArl13B not visible; from E. coli; with ADP-ribosylation factor-like protein 3
T3 sequence (A8INQ0 18-278): T1 sequence (A8INQ0 18-278)
T3 sequence (A8ISN6 2-177 partner): T2 sequence (A8ISN6 2-177 limits assumed)

[3] = target: CrArl3 (Chlamydomonas reinhardtii)
[4] = target: CrArl3 D146R (Chlamydomonas reinhardtii)
[5] = target: CrArl3 D103R (Chlamydomonas reinhardtii)
[6] = target: CrArl3 (Chlamydomonas reinhardtii); remark: listed apart in the source
[7] = target: CrArl3 (Chlamydomonas reinhardtii); remark: listed apart in the source

Question: For Nc1nc2c(ncn2[C@@H]2O[C@H](COP(=O)(O)OP(=O)(O)OP(=O)(O)O)[C@@H](O)[C@H]2O)c(=O)[nH]1 [GTP], which “nucleotide loading (HPLC) and GEF activity of the loaded protein” value (CrArl13B 18-278; GTP-bound state compared by GEF activity on CrArl3·mantGDP) is on record?
Answer: The value was “CrArl13B preloaded with GDP, GTP, or GppNHp was used to analyze the exchange activity”.

Question: For Nc1nc2c(ncn2[C@@H]2O[C@H](COP(=O)(O)OP(=O)(O)O)[C@@H](O)[C@H]2O)c(=O)[nH]1 [GDP], which “nucleotide loading (HPLC) and GEF activity of the loaded protein” value (CrArl13B 18-278; GDP-bound state compared by GEF activity on CrArl3·mantGDP) is on record?
Answer: Its value is “CrArl13B preloaded with GDP, GTP, or GppNHp was used to analyze the exchange activity”.

Question: For Nc1nc2c(ncn2[C@@H]2O[C@H](COP(=O)(O)OP(=O)(O)NP(=O)(O)O)[C@@H](O)[C@H]2O)c(=O)[nH]1 [GppNHp], which “X-ray crystal structure 2.5 Å” value [1] is on record?
Answer: Its value is “GppNHp was clearly visible in both active sites”.

Question: What about the “X-ray crystal structure 2.5 Å” value [2] of the same molecule?
Answer: The value was “GppNHp was clearly visible in both active sites”.

B1: CrArl13B^18-–278 (domain or fragment)
chain: T1 sequence (A8INQ0 18-278)
Question: What does the source list for B1?
Answer: Kobs of mantGDP release from 500 nM CrArl3 with 5 µM CrArl13B·GDP (GEF assay) [3]: 0.0009 s⁻¹; Kobs of mantGDP release from 500 nM CrArl3 with 5 µM CrArl13B·GTP (GEF assay) [3]: 0.006 s⁻¹; Kobs of mantGDP release from 500 nM CrArl3 with 5 µM CrArl13B·GppNHp (GEF assay) [3]: 0.0078 s⁻¹; Kobs of nucleotide release from CrArl3 D146R·mantGppNHp with 5 µM CrArl13B wt (GEF assay) [4]: 0.00014 s⁻¹; Kobs of nucleotide release from CrArl3 D103R·mantGppNHp with 5 µM CrArl13B wt (GEF assay) [5]: 0.00014 s⁻¹; Kobs of nucleotide release from 500 nM CrArl3·mantGppNHp with 5 µM CrArl13B wt (GEF assay, switch interface mutants) [6]: 0.0091 s⁻¹; Kobs of nucleotide release from CrArl3 wt with 5 µM CrArl13B 18-278 (GEF assay, deletion constructs) [6]: 0.0066 s⁻¹; Kobs of nucleotide release from CrArl3 wt·mantGppNHp with 5 µM CrArl13B wt (GEF assay, charge reversal interface mutants) [6]: 0.0085 s⁻¹; KM of the GEF reaction (kobs of mantGDP release from 500 nM CrArl3 against GEF concentration) for CrArl13B·GDP [7]: 155 µM; KM of the GEF reaction (kobs of mantGDP release from 500 nM CrArl3 against GEF concentration) for CrArl13B·GTP [7]: 1.1 µM

B2: CrArl13B D46A (18-278) (domain or fragment)
chain: T1 sequence (A8INQ0 18-278) with D29A
Question: How did the Kobs of nucleotide release from 500 nM CrArl3·mantGppNHp with 5 µM CrArl13B D46A (GEF assay) [6] turn out when B2 was run?
Answer: Its Kobs of nucleotide release from 500 nM CrArl3·mantGppNHp with 5 µM CrArl13B D46A (GEF assay) is 0.0041 s⁻¹.

B3: CrArl13B N75A (18-278) (domain or fragment)
chain: T1 sequence (A8INQ0 18-278) with N58A
Question: Which Kobs of nucleotide release from 500 nM CrArl3·mantGppNHp with 5 µM CrArl13B N75A (GEF assay) [6] does the source give for B3 here?
Answer: Its Kobs of nucleotide release from 500 nM CrArl3·mantGppNHp with 5 µM CrArl13B N75A (GEF assay) is 0.0044 s⁻¹.

B4: CrArl13B H154W (18-278) (domain or fragment)
chain: T1 sequence (A8INQ0 18-278) with H137W
Question: Which Kobs of nucleotide release from CrArl3 wt·mantGppNHp with 5 µM CrArl13B H154W (GEF assay) [6] does the source give for B4 here?
Answer: Its Kobs of nucleotide release from CrArl3 wt·mantGppNHp with 5 µM CrArl13B H154W (GEF assay) is 0.0088 s⁻¹.

B5: CrArl13B △203 (18–202) (domain or fragment)
chain: RKITIALLGLDNAGKTTLLNSIQGEVDRDTTPTFGFNSTTLNEGKYKIEVFDLGGGKNIRGVWKKYLAEVHAIVYVVDAADPGRFEESKMTMAEVLENQFMRDKPICIFANKQDLPTAAPAAEVVKGLGLATCRNSHNVFPCTAKMPAGQDVDHRLRDGLKWLVGTVDREFGRLDPRVQTEAEEV
Question: For B5, which Kobs of nucleotide release from CrArl3 wt with 5 µM CrArl13B △203 (GEF assay, deletion constructs) [6] is on record?
Answer: The Kobs of nucleotide release from CrArl3 wt with 5 µM CrArl13B △203 (GEF assay, deletion constructs) was 0.0001 s⁻¹.

B6: CrArl13B △213 (18–212) (domain or fragment)
chain: RKITIALLGLDNAGKTTLLNSIQGEVDRDTTPTFGFNSTTLNEGKYKIEVFDLGGGKNIRGVWKKYLAEVHAIVYVVDAADPGRFEESKMTMAEVLENQFMRDKPICIFANKQDLPTAAPAAEVVKGLGLATCRNSHNVFPCTAKMPAGQDVDHRLRDGLKWLVGTVDREFGRLDPRVQTEAEEVRQEEARKKKE
Question: How did the Kobs of nucleotide release from CrArl3 wt with 5 µM CrArl13B △213 (GEF assay, deletion constructs) [6] turn out when B6 was run?
Answer: The Kobs of nucleotide release from CrArl3 wt with 5 µM CrArl13B △213 (GEF assay, deletion constructs) was 0.0001 s⁻¹.

B7: CrArl13B △220 (18–219) (domain or fragment)
chain: RKITIALLGLDNAGKTTLLNSIQGEVDRDTTPTFGFNSTTLNEGKYKIEVFDLGGGKNIRGVWKKYLAEVHAIVYVVDAADPGRFEESKMTMAEVLENQFMRDKPICIFANKQDLPTAAPAAEVVKGLGLATCRNSHNVFPCTAKMPAGQDVDHRLRDGLKWLVGTVDREFGRLDPRVQTEAEEVRQEEARKKKEREERLRK
Question: B7 was tested. Which Kobs of nucleotide release from CrArl3 wt with 5 µM CrArl13B △220 (GEF assay, deletion constructs) [6] did it give?
Answer: The Kobs of nucleotide release from CrArl3 wt with 5 µM CrArl13B △220 (GEF assay, deletion constructs) was 0.0011 s⁻¹.

B8: CrArl13B △243 (18–242) (domain or fragment)
chain: RKITIALLGLDNAGKTTLLNSIQGEVDRDTTPTFGFNSTTLNEGKYKIEVFDLGGGKNIRGVWKKYLAEVHAIVYVVDAADPGRFEESKMTMAEVLENQFMRDKPICIFANKQDLPTAAPAAEVVKGLGLATCRNSHNVFPCTAKMPAGQDVDHRLRDGLKWLVGTVDREFGRLDPRVQTEAEEVRQEEARKKKEREERLRKQREERLRQQKEEEERAREVEKEN
Question: How did the Kobs of nucleotide release from CrArl3 wt with 5 µM CrArl13B △243 (GEF assay, deletion constructs) [6] turn out when B8 was run?
Answer: Its Kobs of nucleotide release from CrArl3 wt with 5 µM CrArl13B △243 (GEF assay, deletion constructs) is 0.0045 s⁻¹.

B9: CrArl13B △233 (18–232) (domain or fragment)
chain: RKITIALLGLDNAGKTTLLNSIQGEVDRDTTPTFGFNSTTLNEGKYKIEVFDLGGGKNIRGVWKKYLAEVHAIVYVVDAADPGRFEESKMTMAEVLENQFMRDKPICIFANKQDLPTAAPAAEVVKGLGLATCRNSHNVFPCTAKMPAGQDVDHRLRDGLKWLVGTVDREFGRLDPRVQTEAEEVRQEEARKKKEREERLRKQREERLRQQKEEE
Question: How did the Kobs of nucleotide release from CrArl3 wt with 5 µM CrArl13B △233 (GEF assay, deletion constructs) [6] turn out when B9 was run?
Answer: The Kobs of nucleotide release from CrArl3 wt with 5 µM CrArl13B △233 (GEF assay, deletion constructs) was 0.005 s⁻¹.

B10: CrArl13B F51A (18-278) (domain or fragment)
chain: T1 sequence (A8INQ0 18-278) with F34A
Question: Which Kobs of nucleotide release from 500 nM CrArl3·mantGppNHp with 5 µM CrArl13B F51A (GEF assay) [6] does the source give for B10 here?
Answer: The Kobs of nucleotide release from 500 nM CrArl3·mantGppNHp with 5 µM CrArl13B F51A (GEF assay) was 0.002 s⁻¹.

B11: CrArl13B^F53A (18-278) (domain or fragment)
chain: T1 sequence (A8INQ0 18-278) with F36A
Question: With B11 as the molecule, how does the Kobs of nucleotide release from 500 nM CrArl3·mantGppNHp with 5 µM CrArl13B F53A (GEF assay) [6] read?
Answer: Its Kobs of nucleotide release from 500 nM CrArl3·mantGppNHp with 5 µM CrArl13B F53A (GEF assay) is 0.00042 s⁻¹.

B12: CrArl13B Y83A (18-278) (domain or fragment)
chain: T1 sequence (A8INQ0 18-278) with Y66A
Question: How did the Kobs of nucleotide release from 500 nM CrArl3·mantGppNHp with 5 µM CrArl13B Y83A (GEF assay) [6] turn out when B12 was run?
Answer: Its Kobs of nucleotide release from 500 nM CrArl3·mantGppNHp with 5 µM CrArl13B Y83A (GEF assay) is 0.0009 s⁻¹.
